# Molecular target: DBD-FKBP12 (three tandem copies) (UniProt P62942)
# Assay: cell-based or functional assay
# DBD-FKBP12 (three tandem copies), sequence (P62942 other isoform, or with tags, fused parts or gaps limits assumed): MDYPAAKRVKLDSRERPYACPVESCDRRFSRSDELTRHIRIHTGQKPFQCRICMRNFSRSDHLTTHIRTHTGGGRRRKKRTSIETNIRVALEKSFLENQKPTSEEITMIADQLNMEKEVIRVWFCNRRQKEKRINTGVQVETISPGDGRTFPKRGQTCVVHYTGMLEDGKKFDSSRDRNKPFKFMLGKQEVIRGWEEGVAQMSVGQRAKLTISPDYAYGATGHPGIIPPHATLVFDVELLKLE
substance,measurement,value
FRB-AD (from UniProt P42345 2021-2113),"fold increase of luciferase expression, split transcription factor, rapalog",30 fold

# — US20220380801A1, “TRIPARTITE SYSTEMS FOR PROTEIN DIMERIZATION AND METHODS OF USE” (priority 2019, published 2022)
